The supplement of paper PMC9112550, “Optimization of the antimicrobial peptide Bac7 by deep mutational scanning” (BMC Biology, 2022)

Tested on: Escherichia coli TOP10
Assay: shrunken log2 fold change of peptide-encoding DNA abundance (4.5 h post-induction vs induction); higher = less antimicrobial activity (less host growth inhibition)
Conditions: time post-induction: 4.5 h; library: site-saturation at positions 5, 18, 19, 20
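Also: peptides expressed intracellularly from a pBAD plasmid library in pooled LB shake-flask culture, induced with 0.3% L-arabinose, DNA abundance read by NGS, three biological replicates, DESeq2 with apeglm shrinkage.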

Row | Sequence | shrunken log2 fold change
1 | RRIRERPPRLPRPRPRPIPGPRP | -0.124
2 | RRIRQRPPRLPRPRPRPRQFPRP | -0.121
3 | RRIRERPPRLPRPRPRPGEYPRP | -0.267
4 | RRIRTRPPRLPRPRPRPFKYPRP | -0.114
5 | RRIRHRPPRLPRPRPRPSGMPRP | 0.0613
6 | RRIRMRPPRLPRPRPRPHQDPRP | -0.117
7 | RRIRERPPRLPRPRPRPGGRPRP | 0.27
8 | RRIRMRPPRLPRPRPRPVFGPRP | 0.411
9 | RRIRPRPPRLPRPRPRPIHTPRP | -0.177
10 | RRIRFRPPRLPRPRPRPNVGPRP | -0.0278
11 | RRIRARPPRLPRPRPRPFVMPRP | -0.181
12 | RRIRLRPPRLPRPRPRPVASPRP | -0.0255
13 | RRIRSRPPRLPRPRPRPGVNPRP | -0.398
14 | RRIRCRPPRLPRPRPRPPFGPRP | 0.213
15 | RRIRKRPPRLPRPRPRPDVWPRP | 0.679
16 | RRIRRRPPRLPRPRPRPHVKPRP | -0.32
17 | RRIRYRPPRLPRPRPRPCARPRP | -0.0708
18 | RRIRHRPPRLPRPRPRPQWGPRP | -0.149
19 | RRIRARPPRLPRPRPRPYNCPRP | -0.0254
20 | RRIRARPPRLPRPRPRPGHTPRP | 0.129
21 | RRIRFRPPRLPRPRPRPIKGPRP | -0.248
22 | RRIRDRPPRLPRPRPRPRYVPRP | -0.0272

Row | Sequence | shrunken log2 fold change
23 | RRIRYRPPRLPRPRPRPYGNPRP | -0.00695
24 | RRIRERPPRLPRPRPRPAHSPRP | -0.159
25 | RRIRKRPPRLPRPRPRPNKFPRP | -0.0338
26 | RRIRARPPRLPRPRPRPPCPPRP | 0.489
27 | RRIRSRPPRLPRPRPRPFISPRP | -0.152
28 | RRIRVRPPRLPRPRPRPVQRPRP | 0.167
29 | RRIRHRPPRLPRPRPRPKTLPRP | -0.984
30 | RRIRGRPPRLPRPRPRPGKFPRP | 0.427
31 | RRIRHRPPRLPRPRPRPYKEPRP | -0.00664
32 | RRIRARPPRLPRPRPRPNERPRP | 0.531
33 | RRIRQRPPRLPRPRPRPRGGPRP | 0.484
34 | RRIRNRPPRLPRPRPRPELAPRP | 0.0428
35 | RRIRERPPRLPRPRPRPNGHPRP | 0.0479
36 | RRIRWRPPRLPRPRPRPLRNPRP | 0.847
37 | RRIRGRPPRLPRPRPRPYLDPRP | 0.0767
38 | RRIRPRPPRLPRPRPRPMNCPRP | -0.138
39 | RRIRFRPPRLPRPRPRPFCGPRP | -0.0609
40 | RRIRERPPRLPRPRPRPHMRPRP | 0.0528
41 | RRIRKRPPRLPRPRPRPSTSPRP | -0.0896
42 | RRIRARPPRLPRPRPRPAQCPRP | 0.469
43 | RRIRKRPPRLPRPRPRPQQHPRP | 0.138
44 | RRIRWRPPRLPRPRPRPLLGPRP | 0.875

Row | Sequence | shrunken log2 fold change
45 | RRIRKRPPRLPRPRPRPNYWPRP | 0.157
46 | RRIRLRPPRLPRPRPRPIANPRP | -0.00904
47 | RRIRQRPPRLPRPRPRPEEEPRP | 0.00797
48 | RRIRERPPRLPRPRPRPHMIPRP | 0.0284
49 | RRIRVRPPRLPRPRPRPGRYPRP | 0.303
50 | RRIRFRPPRLPRPRPRPVLHPRP | -0.376
51 | RRIRLRPPRLPRPRPRPSMDPRP | -0.327
52 | RRIRYRPPRLPRPRPRPPKQPRP | -0.0678
53 | RRIRWRPPRLPRPRPRPDMLPRP | 0.142
54 | RRIRVRPPRLPRPRPRPIFDPRP | -0.0222
55 | RRIRMRPPRLPRPRPRPPGWPRP | 1.25
56 | RRIRDRPPRLPRPRPRPFCPPRP | -0.277
57 | RRIRRRPPRLPRPRPRPMKNPRP | 0.298
58 | RRIRQRPPRLPRPRPRPQDHPRP | -0.408
59 | RRIRQRPPRLPRPRPRPRKPPRP | 0.0318
60 | RRIRGRPPRLPRPRPRPHHTPRP | -0.12
61 | RRIRCRPPRLPRPRPRPHMNPRP | -0.843
62 | RRIRKRPPRLPRPRPRPYRKPRP | 0.0413
63 | RRIRPRPPRLPRPRPRPAGRPRP | 0.395
64 | RRIRQRPPRLPRPRPRPWMGPRP | 0.063
65 | RRIRNRPPRLPRPRPRPYLNPRP | -0.487
66 | RRIRNRPPRLPRPRPRPRHGPRP | -0.0314

Row | Sequence | shrunken log2 fold change
67 | RRIRYRPPRLPRPRPRPRPAPRP | 0.393
68 | RRIRGRPPRLPRPRPRPIHLPRP | -0.0773
69 | RRIRGRPPRLPRPRPRPIDVPRP | 0.0296
70 | RRIRVRPPRLPRPRPRPESMPRP | -0.149
71 | RRIRHRPPRLPRPRPRPYLYPRP | -0.482
72 | RRIRCRPPRLPRPRPRPIHLPRP | -0.193
73 | RRIRGRPPRLPRPRPRPRSEPRP | 0.29
74 | RRIRKRPPRLPRPRPRPLLFPRP | 0.176
75 | RRIRYRPPRLPRPRPRPVCQPRP | -0.181
76 | RRIRERPPRLPRPRPRPGRGPRP | 0.436
77 | RRIRKRPPRLPRPRPRPNQRPRP | -0.192
78 | RRIRMRPPRLPRPRPRPWPQPRP | 0.729
79 | RRIRTRPPRLPRPRPRPACRPRP | 0.206
80 | RRIRWRPPRLPRPRPRPLGAPRP | 0.483
81 | RRIRPRPPRLPRPRPRPGAIPRP | 0.0588
82 | RRIRCRPPRLPRPRPRPDRIPRP | -0.0911
83 | RRIRWRPPRLPRPRPRPCEIPRP | -0.243
84 | RRIRDRPPRLPRPRPRPINSPRP | -0.292
85 | RRIRDRPPRLPRPRPRPWCRPRP | 0.0772
86 | RRIRFRPPRLPRPRPRPINCPRP | -0.257
87 | RRIRRRPPRLPRPRPRPPTFPRP | 0.0767
88 | RRIRWRPPRLPRPRPRPNILPRP | -0.402

Row | Sequence | shrunken log2 fold change
89 | RRIRTRPPRLPRPRPRPVMVPRP | -0.0537
90 | RRIRKRPPRLPRPRPRPSFVPRP | -0.174
91 | RRIRIRPPRLPRPRPRPCGDPRP | -0.0271
92 | RRIRGRPPRLPRPRPRPKLEPRP | 0.507
93 | RRIRTRPPRLPRPRPRPSFVPRP | -0.488
94 | RRIRERPPRLPRPRPRPTTYPRP | -0.8
95 | RRIRARPPRLPRPRPRPWAKPRP | 0.334
96 | RRIRLRPPRLPRPRPRPCNHPRP | -0.0991
97 | RRIRVRPPRLPRPRPRPGHFPRP | 0.136
98 | RRIRGRPPRLPRPRPRPLDAPRP | 0.969
99 | RRIRTRPPRLPRPRPRPMGKPRP | 0.0179
100 | RRIRQRPPRLPRPRPRPGNNPRP | -0.54
101 | RRIRTRPPRLPRPRPRPHEEPRP | 0.0127
102 | RRIRNRPPRLPRPRPRPNEEPRP | -0.00613
103 | RRIRRRPPRLPRPRPRPQIFPRP | -0.0198
104 | RRIRERPPRLPRPRPRPAMNPRP | -0.28
105 | RRIRGRPPRLPRPRPRPRSDPRP | 0.555
106 | RRIRTRPPRLPRPRPRPWLGPRP | -0.00306
107 | RRIRSRPPRLPRPRPRPKFDPRP | -0.081
108 | RRIRVRPPRLPRPRPRPSQKPRP | -0.0127
109 | RRIRNRPPRLPRPRPRPYIYPRP | -0.514
